Assay results as given in patent publication US10501734B2, “Compositions and methods of use thereof for making polypeptides with many instances of nonstandard amino acids” (Yale University, priority 2014, dated 2019).

How the values were obtained:
tRNA = assay: Aminoacylation assay (tRNA charging); type: biochemical; conditions: for Fold change: relative to progenitor pAcFRS
Experimental: Template plasmid containing tRNA gene was purified with the plasmid maxi kit (Qiagen), and 100 μg of plasmid was digested with BstNI (New England Biolabs). The BstNI digested template DNA was purified by phenol chloroform extraction, followed by ethanol precipitation and resolved in double distilled water. A His-tagged T7 RNA polymerase was purified over column of Ni-NTA resin according to manufacturer's instructions (Qiagen). The transcription reaction [40 mM Tris (pH 8); 4 mM each of UTP, CTP, GTP, and ATP at pH 7.0; 22 mM MgCl2; 2 mM spermidine; 10 mM DTT; 6 μg pyrophosphatase (Roche Applied Science); 60 μg/mL BstNI digested DNA template, approximately 0.2 mg/ml T7 RNA polymerase] was performed in 10 ml reaction volumes for overnight at 37° C. The tRNA was purified on 12% denaturing polyacrylamide gel containing 8 M urea and TBE buffer (90 mM Tris, 90 mM boric acid, 2 mM EDTA). UV shadowing illuminates the pure tRNA band, which is excised and extracted three times with 1M sodium acetate pH 5.3 at 4° C. The tRNA extractions were then ethanol precipitated, dissolved in RNase-free distilled water, pooled, and finally desalted using a Biospin 30 column (BioRad). The ratio of aminoacylated tRNA to total tRNA was determined to monitor reaction progress.
The tRNA was refolded by heating to 100° C. for 5 min and slow cooling to room temperature. At 65° C., MgC12, was added to a final concentration of 10 mM to aid folding. A His-tagged CCA adding enzyme was purified over column of Ni-NTA resin according to manufacturer's instructions (Qiagen). 16 μM folded tRNA in 50 mM Tris (pH 8.0), 20 mM MgCl2, 5 mM DTT and 50 μM NaPPi was incubated at room temperature for 1 hour with approximately 0.2 mg/ml CCA-adding enzyme and 1.6 μCi/μl of [α-32P]-labeled ATP (PerkinElmer). The sample was phenol/chloroform extracted and then passed over a Bio-spin 30 column (Bio-Rad) to remove excess ATP.
A 20 μl aminoacylation reaction contained the following components: 50 mM HEPES-KOH (pH 7.2), 25 mM KCl, 10 mM MgCl2, 5 mM DTT, 10 mM ATP, 25 μg/ml pyrophosphatase (Roche Applied Science), 2 mM amino acids. All plateau tRNA aminoacylation levels were determined at 37° C. according to the reactions conditions described above with 500 nM enzyme, 5 μM unlabeled tRNA plus 100 nM 32P-labeled tRNA. Time points were taken at 5 minutes, 20 minutes and 60 minutes by removing 2 μl aliquots from the reaction and immediately quenching the reaction into an ice-cold 3 μl quench solution [0.66 μg/μl nuclease P1 (Sigma) in 100 mM sodium citrate (pH 5.0)]. For each reaction, 2 μl of blank reaction mixture containing no enzymes was added to the quench solution as the start time point. The nuclease P1 mixture was then incubated at room temperature for 30 min and 1 μl aliquots were spotted on PEI-cellulose plates (Merck) and developed in running buffer containing 5% acetic acid and 100 mM ammonium acetate. Radioactive spots for AMP and AA-AMP (representing free tRNA and aminoacyl-tRNA, respectively) were separated and then visualized and quantified by phosphor imaging by a Molecular Dynamics Storm 860 phosphorimager (Amersham Biosciences). The ratio of aminoacylated tRNA to total tRNA was determined to monitor reaction progress.

ELP(30TAG)-GFP = assay: Intact cell GFP fluorescence, ELP(30TAG)-GFP production; type: cell-based, E. coli; conditions: plasmid-based OTSs; panel of 14 nsAAs
Experimental: Liquid cell cultures of strains harboring chromosomally integrated OTSs and GFP reporter plasmids were inoculated from frozen stocks and grown to confluence overnight. Cultures were then inoculated at 1:20 dilution in LBmin media supplemented with 30 μg/ml kanamycin. Strains were inoculated by addition of 1:20 confluent cell culture (grown overnight) and allowed to grow at 34° C. to an OD600 of 0.5-0.8 in a shaking plate incubator at 650 r.p.m (˜3 h). AARS expression was then induced by the addition of 0.2% arabinose, GFP expression was induced by the addition of 60 ng/ul anhydrotetracycline, and the appropriate nsAA was added to a concentration of 1 mM. Cells were incubated at 34° C. for an additional 16 h. Liquid cell cultures of strains harboring plasmid-based OTSs and GFP or ELP-GFP reporter plasmids were inoculated from frozen stocks and grown to confluence overnight. Cultures were then inoculated at 1:20 dilution in 2×YT media supplemented with 30 μg/ml kanamycin and 20 μg/ml chloramphenicol. […] Cells were allowed to grow at 34° C. to an OD600 of 0.5-0.8 in a shaking plate incubator at 650 r.p.m (˜3 h), reporter protein expression was then induced by the addition of 60 ng/ul anhydrotetracycline, and cells were incubated at 34° C. for an additional 16 h.
For 384 well plate-based assays, fluorescence and OD600 were directly measured following expression. For 96 well plate-based assays, cells were centrifuged at 4,000 g for 4 min. Supernatant medium was removed and cells were resuspended in PBS. This process was repeated twice with PBS. GFP fluorescence was measured on a Biotek spectrophotometric plate reader using excitation and emission wavelengths of 395 and 509 nm, respectively). Fluorescence signals were normalized by dividing the fluorescence counts by the OD600 reading. The nsAAs used in this study were purchased from Sigma-Aldrich (St. Louis, Mo.), Chemlmpex (Wood Dale, Ill.), and Bachem (Torrance, Calif.). Solutions of nsAAs (50 mM) were made in water or 50 mM NaOH; these stock solutions were diluted 50- or 100-fold (to 1 mM final concentration) into medium used for bacterial growth.

Molecule	Km (tRNA; nsAA pAcF) [µM]	kcat (tRNA; nsAA pAcF)	Fold change (tRNA; nsAA pAcF)	Km (tRNA; nsAA pAzF) [µM]	kcat (tRNA; nsAA pAzF)	Fold change (tRNA; nsAA pAzF)	nsAA specificity in ELP(30TAG)-GFP production (ELP(30TAG)-GFP)	decrease in tRNA charging for pAzF compared with pAcF (tRNA; in vitro biochemical analysis) [fold]
pAcFRS.1.t1: pAcFRS variant A167D, R257G, SEQ ID NO: 5 (protein) MDEFEMIKRNTSEIISEEELREVLKKDEKSALIGFEPSGKIHLGHYLQIKKMIDLQNAGFDIIILLADLHAYLNQKGELDEIRKIGDYNKKVFEAMGLKAKYVYGSEFQLDKDYTLNVYRLALKTTLKRARRSMELIAREDENPKVAEVIYPIMQVNGCHYRGVDVDVGGMEQRKIHMLARELLPKKVVCIHNPVLTGLDGEGKMSSSKGNFIAVDDSPEEIRAKIKKAYCPAGVVEGNPIMEIAKYFLEYPLTIKGPEKFGGDLTVNSYEELESLFKNKELHPMRLKNAVAEELIKILEPIRKRL	16 ± 4	1.12 ± 0.14 ×10^−3 s^−1	9.58	16 ± 1	0.63 ± 0.12 ×10^−3 s^−1	6.33		
pAcFRS: progenitor M. jannaschii based p-acetyl-L-phenylalanine AARS, SEQ ID NO:1 (Young, et al., 2010) (protein, listed as Methanocaldococcus jannaschii) MDEFEMIKRNTSEIISEEELREVLKKDEKSALIGFEPSGKIHLGHYLQIKKMIDLQNAGFDIIILLADLHAYLNQKGELDEIRKIGDYNKKVFEAMGLKAKYVYGSEFQLDKDYTLNVYRLALKTTLKRARRSMELIAREDENPKVAEVIYPIMQVNGCHYRGVDVAVGGMEQRKIHMLARELLPKKVVCIHNPVLTGLDGEGKMSSSKGNFIAVDDSPEEIRAKIKKAYCPAGVVEGNPIMEIAKYFLEYPLTIKRPEKFGGDLTVNSYEELESLFKNKELHPMRLKNAVAEELIKILEPIRKRL	34 ± 6	0.25 ± 0.04 ×10^−3 s^−1	1	34 ± 7	0.23 ± 0.03 ×10^−3 s^−1	1		
pAzFRS.2.t1: pAcFRS variant E107T, F108Y, Q109M, R257G, SEQ ID NO: 14 (protein) MDEFEMIKRNTSEIISEEELREVLKKDEKSALIGFEPSGKIHLGHYLQIKKMIDLQNAGFDIIILLADLHAYLNQKGELDEIRKIGDYNKKVFEAMGLKAKYVYGSTYMLDKDYTLNVYRLALKTTLKRARRSMELIAREDENPKVAEVIYPIMQVNGCHYRGVDVAVGGMEQRKIHMLARELLPKKVVCIHNPVLTGLDGEGKMSSSKGNFIAVDDSPEEIRAKIKKAYCPAGVVEGNPIMEIAKYFLEYPLTIKGPEKFGGDLTVNSYEELESLFKNKELHPMRLKNAVAEELIKILEPIRKRL				14 ± 3	0.71 ± 0.13 ×10^−3 s^−1	8.17		
pAcFRS.2.t1: pAcFRS variant L65V, A167D, R257G, SEQ ID NO: 8 (protein) MDEFEMIKRNTSEIISEEELREVLKKDEKSALIGFEPSGKIHLGHYLQIKKMIDLQNAGFDIIIVLADLHAYLNQKGELDEIRKIGDYNKKVFEAMGLKAKYVYGSEFQLDKDYTLNVYRLALKTTLKRARRSMELIAREDENPKVAEVIYPIMQVNGCHYRGVDVDVGGMEQRKIHMLARELLPKKVVCIHNPVLTGLDGEGKMSSSKGNFIAVDDSPEEIRAKIKKAYCPAGVVEGNPIMEIAKYFLEYPLTIKGPEKFGGDLTVNSYEELESLFKNKELHPMRLKNAVAEELIKILEPIRKRL	18 ± 2	0.54 ± 0.15 ×10^−3 s^−1	4.10	24 ± 7	0.22 ± 0.05 ×10^−3 s^−1	1.47	for pAcF over pAzF decreases when expressed on a multi-copy plasmid	2.8
pAzFRS.1.t1: pAcFRS variant D158V, I159M, L162D, A167Y, R257G, SEQ ID NO: 11 (protein) MDEFEMIKRNTSEIISEEELREVLKKDEKSALIGFEPSGKIHLGHYLQIKKMIDLQNAGFDIIILLADLHAYLNQKGELDEIRKIGDYNKKVFEAMGLKAKYVYGSEFQLDKDYTLNVYRLALKTTLKRARRSMELIAREDENPKVAEVIYPIMQVNVMHYDGVDVYVGGMEQRKIHMLARELLPKKVVCIHNPVLTGLDGEGKMSSSKGNFIAVDDSPEEIRAKIKKAYCPAGVVEGNPIMMEIAKYFLEYPLTIKGPEKFGGDLTVNSYEELESLFKNKELHPMRLKNAVAEELIKILEPIRKRL				24 ± 3	0.49 ± 0.17 ×10^−3 s^−1	3.29	maintains stringent specificity for pAzF	
